Measured values reported in the supplement of paper PMC7877785.
± gives the uncertainty stated by the source.

Assay: self-splicing fitness, log relative to wild type (ln ratio); higher = more splicing; Tetrahymena group I intron in knt gene, E. coli kanamycin selection, DiMSum; sequences stand for … in CUCUCU…GGAGGGAAAAGUUAUCAGGCAUGCACCUGGUAGCUAGUCUUUAAACCAAUAGAUUGCAUCGGUUUAAAAGGCAAGACCGUCAAAUUGCGGGAAAGGGGUCAACAGCCGUUCAGUACCAAGUCUCAGGGGAAACUUUGAGAUGGCCUUGCAAAGGGUAUGGUAAUAAGCUGACGGACAUGGUCCUAACCACGCAGCCAAGUCCUAAGUCAACAGAUCUUCUGUUGAUAUGGAUGCAGUUCACAGACUAAAUGUCGGUCGGGGAAGAUGUAUUCUUCUCAUAAGAUAUAGUCGGACCUCUCCUUAAUGGGAGCUAGCGGAUGAAGUGAUGCAACACUGGAGCCGCUGGGAACUAAUUUGUAUGCGAAAGUAUAUUGAUUAGUUUUGGAGUACUCGUGGUCG
Outline: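 The eight P1ex-region nucleotides of an intron in the knt kanamycin-resistance gene on pET-22b(+) were all randomised and the library put into E. coli BL21(DE3). Six replicate transformations were grown overnight at 37°C or 30°C on LB agar with or without 25 μg/mL kanamycin, together with 100 μg/mL carbenicillin, 50 μM IPTG and 0.2% rhamnose. Colonies were pooled and amplicon-sequenced on an Illumina HiSeq 2500. Fitness from DiMSum is the error-weighted combination of wild-type-normalised replicate fold changes, kanamycin over none.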

Sequence | self-splicing fitness (ln) (30 °C) | self-splicing fitness (ln) (37 °C)
CUAGAGCAAUAUUACGUAAU | -3.79 ± 0.2 | -2.22 ± 0.23
CUAGAGCAAUAUUACGUGCU | -3.54 ± 0.28 | -0.493 ± 0.15
CUAGAGCAAUAUUACGUGUC | -4.02 ± 0.3 | -2.88 ± 0.26
CUAGAGCAAUAUUACGUUAU | -3.29 ± 0.16 | -2.3 ± 0.23
CUAUAGCAAUAUUACGAAAG | -1.84 ± 0.1 | -1.01 ± 0.12
CUAUAGCAAUAUUACGAACA | -2.76 ± 0.19 | -2.49 ± 0.2
CUAUAGCAAUAUUACGAAGA | -3.01 ± 0.25 | –
CUAUAGCAAUAUUACGAAGU | -3.32 ± 0.25 | -1.93 ± 0.28
CUAUAGCAAUAUUACGAGUA | -2.86 ± 0.41 | -1.62 ± 0.23
CUAUAGCAAUAUUACGAUGC | -4.97 ± 0.38 | -2.41 ± 0.2
CUAUAGCAAUAUUACGCACG | -0.606 ± 0.14 | -0.255 ± 0.23
CUAUAGCAAUAUUACGCCGU | -3.51 ± 0.29 | -2.6 ± 0.44
CUAUAGCAAUAUUACGCUGA | -2.84 ± 0.24 | -2.32 ± 0.29
CUAUAGCAAUAUUACGGCCU | -2.9 ± 0.38 | -1.78 ± 0.38
CUAUAGCAAUAUUACGGGCG | -0.345 ± 0.084 | -0.342 ± 0.098
CUAUAGCAAUAUUACGGUGU | -4.24 ± 0.27 | -1.93 ± 0.22
CUAUAGCAAUAUUACGUAUC | -5.21 ± 0.32 | -2.48 ± 0.14
CUAUAGCAAUAUUACGUCAU | -2.83 ± 0.33 | -3.05 ± 0.24
CUAUAGCAAUAUUACGUCGG | -1.97 ± 0.2 | -1.33 ± 0.2
CUAUAGCAAUAUUACGUCUU | -4.3 ± 0.32 | -2.76 ± 0.23
CUAUAGCAAUAUUACGUGCC | -2.54 ± 0.32 | –
CUAUAGCAAUAUUACGUGUG | -1.04 ± 0.079 | -0.474 ± 0.096
CUAUAGCAAUAUUACGUUGU | -3.77 ± 0.19 | -3.85 ± 0.33
CUCAAGCAAUAUUACGAACA | -3.45 ± 0.44 | -0.994 ± 0.31

Sequence | self-splicing fitness (ln) (30 °C) | self-splicing fitness (ln) (37 °C)
CUCAAGCAAUAUUACGACGA | -3.03 ± 0.23 | -1.35 ± 0.14
CUCAAGCAAUAUUACGAGGC | -3.51 ± 0.3 | -2.65 ± 0.27
CUCAAGCAAUAUUACGAGUC | -3.49 ± 0.21 | -3.23 ± 0.47
CUCAAGCAAUAUUACGCCAA | -3.55 ± 0.33 | -2.37 ± 0.31
CUCAAGCAAUAUUACGCCUA | -2.82 ± 0.27 | -2.16 ± 0.28
CUCAAGCAAUAUUACGCGAA | – | -1.79 ± 0.22
CUCAAGCAAUAUUACGCGGA | -3.12 ± 0.25 | -4.56 ± 0.31
CUCAAGCAAUAUUACGGAAU | -3.95 ± 0.26 | -2.67 ± 0.22
CUCAAGCAAUAUUACGGACU | -2.42 ± 0.15 | -1.36 ± 0.2
CUCAAGCAAUAUUACGGAGG | -1.53 ± 0.098 | -0.576 ± 0.087
CUCAAGCAAUAUUACGGAGU | -3.52 ± 0.17 | -3.04 ± 0.18
CUCAAGCAAUAUUACGGCAC | -2.74 ± 0.2 | -1.97 ± 0.28
CUCAAGCAAUAUUACGGCGG | -2.38 ± 0.092 | -1.65 ± 0.11
CUCAAGCAAUAUUACGGGGG | -4.01 ± 0.23 | -2.88 ± 0.2
CUCAAGCAAUAUUACGUACU | -3.51 ± 0.22 | -1.29 ± 0.17
CUCAAGCAAUAUUACGUCAG | -1.5 ± 0.077 | -0.908 ± 0.099
CUCAAGCAAUAUUACGUCAU | -2.99 ± 0.14 | -2.55 ± 0.14
CUCAAGCAAUAUUACGUCGG | -2.02 ± 0.1 | -1.27 ± 0.11
CUCAAGCAAUAUUACGUCGU | -3.21 ± 0.15 | -1.12 ± 0.11
CUCAAGCAAUAUUACGUCUU | -3.42 ± 0.21 | -2.06 ± 0.16
CUCAAGCAAUAUUACGUGGG | -4.05 ± 0.17 | -2.85 ± 0.15
CUCAAGCAAUAUUACGUUCG | -3.18 ± 0.18 | -3 ± 0.26
CUCAAGCAAUAUUACGUUGU | -3.9 ± 0.36 | -2.89 ± 0.23
CUCCAGCAAUAUUACGAAGU | -3.59 ± 0.16 | -2.98 ± 0.26
